B1: TEKT4 (parent)
chain: YARYHQAFADRDQSERQRHESQQL

Variants of: B1
Test: protein stability index of a GFP-peptide fusion (GPS, HEK-293T) (PSI 1-6); higher = more stable
Settings: c terminus: a fixed tail appended
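Also: lentivirally expressed fusions sorted by FACS into six bins by GFP to DsRed ratio, PSI derived from sequencing read proportions per bin multiplied by bin number.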

Variant	protein stability index
YERYHQAFADRDQSERQRHESQQL [A2E]	4.29
YPRYHQAFADRDQSERQRHESQQL [A2P]	2.7
YVRYHQAFADRDQSERQRHESQQL [A2V]	1.87
YMRYHQAFADRDQSERQRHESQQL [A2M]	2.27
YRRYHQAFADRDQSERQRHESQQL [A2R]	4.27
YSRYHQAFADRDQSERQRHESQQL [A2S]	1.92
YDRYHQAFADRDQSERQRHESQQL [A2D]	4.3
YARYHQAMADRDQSERQRHESQQL [F8M]	3.92
YARYHQALADRDQSERQRHESQQL [F8L]	4.72
YARYHQANADRDQSERQRHESQQL [F8N]	4.61
YARYHQAWADRDQSERQRHESQQL [F8W]	1.4
YARYHQAFADRDQDERQRHESQQL [S14D]	2.76
YARYHQAFADRDQRERQRHESQQL [S14R]	1.63
YARYHQAFADRDQMERQRHESQQL [S14M]	1.79
YARYHQAFADRDQLERQRHESQQL [S14L]	2.72
YARYHQAFADRDQCERQRHESQQL [S14C]	1.46
YARYHQAFADRDQGERQRHESQQL [S14G]	1.8
YARYHQAFADRDQWERQRHESQQL [S14W]	1.71
YARYHQAFADRDQQERQRHESQQL [S14Q]	2.13
YARYHQAFADRDQPERQRHESQQL [S14P]	3.2
YARYHQAFMDRDQSERQRHESQQL [A9M]	2.21
YARYHQAFQDRDQSERQRHESQQL [A9Q]	2.98
YARYHQAFNDRDQSERQRHESQQL [A9N]	3.09
YARYHQAFKDRDQSERQRHESQQL [A9K]	3.3

Variant	protein stability index
YARYHQAFDDRDQSERQRHESQQL [A9D]	3.86
YARYHQAFFDRDQSERQRHESQQL [A9F]	2.58
YARYHQAFCDRDQSERQRHESQQL [A9C]	1.67
YARYHQAFEDRDQSERQRHESQQL [A9E]	3.57
YARYRQAFADRDQSERQRHESQQL [H5R]	3
YARYLQAFADRDQSERQRHESQQL [H5L]	3.47
YARYNQAFADRDQSERQRHESQQL [H5N]	2.3
YARYPQAFADRDQSERQRHESQQL [H5P]	2.98
YARYYQAFADRDQSERQRHESQQL [H5Y]	2.6
YARYFQAFADRDQSERQRHESQQL [H5F]	2.5
YARYKQAFADRDQSERQRHESQQL [H5K]	2.88
YARYGQAFADRDQSERQRHESQQL [H5G]	1.44
YARYIQAFADRDQSERQRHESQQL [H5I]	3.29
YARYAQAFADRDQSERQRHESQQL [H5A]	1.91
YARYEQAFADRDQSERQRHESQQL [H5E]	4.54
YARYQQAFADRDQSERQRHESQQL [H5Q]	2.98
YARYHQAFAHRDQSERQRHESQQL [D10H]	2.19
YARYHQAFAWRDQSERQRHESQQL [D10W]	2.39
YARYHQAFAQRDQSERQRHESQQL [D10Q]	2.17
YARYHQAFARRDQSERQRHESQQL [D10R]	2.77
YARYHQAFAMRDQSERQRHESQQL [D10M]	1.97
YARYHQAFAVRDQSERQRHESQQL [D10V]	2.32
YARYHQAFAARDQSERQRHESQQL [D10A]	1.8
YARYHQAFANRDQSERQRHESQQL [D10N]	2.33

Variant	protein stability index
YARYHQAFASRDQSERQRHESQQL [D10S]	2.49
YARYHQAFADRDQSERQNHESQQL [R18N]	2.01
YARYHQAFADRDQSERQGHESQQL [R18G]	3.52
YARYHQAFADRDQSERQLHESQQL [R18L]	2.18
YARYHQAFADRDQSERQPHESQQL [R18P]	2.26
YARYHQAFADRDQSERQHHESQQL [R18H]	2.81
YARYHQAFADRDQSERQIHESQQL [R18I]	2.15
YARYHQAFADRDQSERQFHESQQL [R18F]	2.23
YARYHQAFADRDQSERQWHESQQL [R18W]	2.01
YARYHQAFADRDQSERQYHESQQL [R18Y]	2.82
YARYHQAFADRDQSERQCHESQQL [R18C]	2.6
YARYHQAFADRDQSETQRHESQQL [R16T]	2.26
YARYHQAFADRDQSELQRHESQQL [R16L]	3.1
YARYHQAFADRDQSECQRHESQQL [R16C]	2.63
YARYHQAFADRDQSESQRHESQQL [R16S]	2
YARYHQAFADRDQSEVQRHESQQL [R16V]	2.35
YARYHQAFADRDQSEEQRHESQQL [R16E]	2.43
YARYHQAFADRDQSEPQRHESQQL [R16P]	2.08
YARYHQAFADRDQSEDQRHESQQL [R16D]	2.4
YARYHQAFADRDQSERQRHESKQL [Q22K]	2.17
YARYHQAFADRDQSERQRHESRQL [Q22R]	1.85
YARYHQAFADRDQSERQRHESWQL [Q22W]	1.43
YARYHQAFADRDQSERQRHESTQL [Q22T]	1.63
YARYHGAFADRDQSERQRHESQQL [Q6G]	2.64

Variant	protein stability index
YARYHKAFADRDQSERQRHESQQL [Q6K]	2.31
YARYHRAFADRDQSERQRHESQQL [Q6R]	2.26
YARYHFAFADRDQSERQRHESQQL [Q6F]	3.06
YARYHYAFADRDQSERQRHESQQL [Q6Y]	2.54
YARYHQAFADRDQSERQRHESQEL [Q23E]	1.97
YARYHQAFADRDQSERQRHESQML [Q23M]	1.94
YARYHQAFADRDQSERQRHESQNL [Q23N]	1.91
YARYHQAFADRDQSERQRHESQSL [Q23S]	2.41
YARYHQAFADRDQSERQRHESQWL [Q23W]	1.7
YARYHQAFADRDQSERQRHESQIL [Q23I]	1.66
YARYHQAFADRDQSERQRHESQGL [Q23G]	2.01
YARYHQAFADRDQSERQRHESQFL [Q23F]	1.44
YARYHQAFADRDQSERQRHESQLL [Q23L]	2.63
NARYHQAFADRDQSERQRHESQQL [Y1N]	4.9
MARYHQAFADRDQSERQRHESQQL [Y1M]	4.44
FARYHQAFADRDQSERQRHESQQL [Y1F]	2.07
KARYHQAFADRDQSERQRHESQQL [Y1K]	4.76
VARYHQAFADRDQSERQRHESQQL [Y1V]	4.91
GARYHQAFADRDQSERQRHESQQL [Y1G]	5.11
RARYHQAFADRDQSERQRHESQQL [Y1R]	4.08
WARYHQAFADRDQSERQRHESQQL [Y1W]	3.69
CARYHQAFADRDQSERQRHESQQL [Y1C]	3.46

Source: the supplement of paper PMC10567573
